Laboratory results as given in patent US20230212306A1 (Daiichi Sankyo, published 2023).

T1: human TLR7-Flag-His×6 (human TLR7 variant 2), expressed in Ba/F3 cells together with human Unc93B1-HA×2 (human, UniProt Q9NYK1 27-1049)
T1 construct: Cells were permeabilised with 0.1% saponin before staining; also called hTLR7-Flag-His×6; not shown: Flag-His×6 tag added to the C-terminus
T1 sequence: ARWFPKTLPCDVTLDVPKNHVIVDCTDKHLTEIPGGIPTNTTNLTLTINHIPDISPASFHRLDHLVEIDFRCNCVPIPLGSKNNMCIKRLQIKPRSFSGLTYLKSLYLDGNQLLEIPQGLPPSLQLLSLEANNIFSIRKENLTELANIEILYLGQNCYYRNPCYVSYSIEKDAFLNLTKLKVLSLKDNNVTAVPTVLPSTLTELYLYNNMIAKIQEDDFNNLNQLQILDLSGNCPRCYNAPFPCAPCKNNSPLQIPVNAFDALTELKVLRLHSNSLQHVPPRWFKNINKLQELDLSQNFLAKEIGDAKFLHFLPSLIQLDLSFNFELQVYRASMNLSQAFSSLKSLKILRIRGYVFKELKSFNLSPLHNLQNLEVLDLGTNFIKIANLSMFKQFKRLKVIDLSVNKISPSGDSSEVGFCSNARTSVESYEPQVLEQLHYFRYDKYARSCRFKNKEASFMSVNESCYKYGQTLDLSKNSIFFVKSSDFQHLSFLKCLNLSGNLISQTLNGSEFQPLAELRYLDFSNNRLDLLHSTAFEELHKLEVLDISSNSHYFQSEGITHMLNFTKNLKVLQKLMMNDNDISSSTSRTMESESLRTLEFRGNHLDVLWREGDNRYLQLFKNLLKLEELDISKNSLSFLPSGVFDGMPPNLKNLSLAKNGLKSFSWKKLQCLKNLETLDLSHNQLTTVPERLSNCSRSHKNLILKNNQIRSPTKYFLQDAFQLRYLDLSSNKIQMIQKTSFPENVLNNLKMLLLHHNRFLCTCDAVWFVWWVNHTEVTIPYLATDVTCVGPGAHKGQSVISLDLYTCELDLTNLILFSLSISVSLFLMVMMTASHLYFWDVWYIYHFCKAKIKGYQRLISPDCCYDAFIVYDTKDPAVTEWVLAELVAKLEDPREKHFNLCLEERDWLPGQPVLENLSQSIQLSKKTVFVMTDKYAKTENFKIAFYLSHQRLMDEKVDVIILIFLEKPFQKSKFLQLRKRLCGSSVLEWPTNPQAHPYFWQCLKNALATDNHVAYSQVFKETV

B1: cAT01 antibody (antibody, human IgG1, V domains shown)
VH: QVQLQQPGAELVKPGASVNLSCKASGYTFTNNWLHWVKQRPGRGLEWIGDIYPSNGRTNYNEQFKTKATLTVDKSSSTAYMQLSSLTSEDSAVYFCARERGYFDYWGQGTALTVSS
VL: DIQMTQSPSSLSTSLGGKVTITCKASQDINKYIAWYQHKPGKGPRLLIHYTSTLQPGIPSRFSGSGSGRDYSFSISNLEPEDIATYYCLQYDYLLTFGAGTKLELKR
notes: Mouse variable regions on human IgG1 / human kappa constant regions; also called chimeric AT01 antibody; AT01 chimeric anti-human TLR7 antibody
B2: cNB7 antibody (antibody, human IgG1, V domains shown)
VH: DVQLQESGPGLVKPSQSLSLTCTVTGYSITSDYAWNWIRQFPGNKLEWMGHISYRGNTNYNPSLKSRISITRDTSKNQFFLQLNSVTTEDTATYYCASWNYYGYVDYAMDYWGQGTSVTVSS
VL: DIQMTQTPSSLSASLGDRVTISCRASQDISNYLNWYQQKPDGTVKLLIYYTSRLHSGVPSRFSGSGSGTDYSLTINNLEQEDIATYFCQQGDTFPTFGGGTKLEIKR
notes: Mouse variable regions on human IgG1 / human kappa constant regions; also called chimeric NB7 antibody; NB7 chimeric anti-human TLR7 antibody
B3: cFAN2 antibody (antibody, human IgG1, V domains shown)
VH: QVQLKESGPGLVAPSQSLSITCTVSGFSLTGYGVNWVRQPPGKGLEWLGMIWGDGSTDYNSALKSRLSIRKDNSKSQVFLKMNSLQTDDTARYYCARDKGYDGYYYAMDYWGQGTSVTVSS
VL: DIQMTQSPASLSASVGETVTITCRASENIYSYLAWYQQKQGKSPQLLVYDAKTLAEGVPSRFSGSGSGTQFSLKINSLQPEDFGSYYCQHHYGIPYTFGGGTKLEIKR
notes: Mouse variable regions on human IgG1 / human kappa constant regions; also called chimeric FAN2 antibody; FAN2 chimeric anti-human TLR7 antibody

biological target: T1, human TLR7-Flag-His×6 (human TLR7 …); experiment: flow cytometry (MFI), antibody dilution series on saponin-permeabilised Ba/F3 cells expressing human TLR7-Flag-His×6/hUnc93B1-HA×2
Method: A Ba/F3 cell line expressing human TLR7-Flag-His×6/hUnc93B1-HA×2 was subjected to membrane permeation with 0.1% Saponin and stained using the dilution series of chimeric AT01 antibody, NB7 antibody, and FAN2 antibody at the antibody concentrations obtained in Example 4, and the secondary antibody, Goat anti-human IgG Fc-PE (eBioscience). The binding activity of each antibody was evaluated by comparing the MFI based on flow cytometry analysis.

Binding result, binds:
B1, B2, B3
